Data: PMC8778713, “Knockout of Arabidopsis thaliana VEP1, Encoding a PRISE (Progesterone 5β-Reductase/Iridoid Synthase-Like Enzyme), Leads to Metabolic Changes in Response to Exogenous Methyl Vinyl Ketone (MVK)” (Metabolites, 2021)

How the values were obtained:
Experiment in all cases: purified protein
Format in all cases: biochemical, Arabidopsis thaliana
[1] = substrate: CC(=O)[C@H]1CC[C@H]2[C@@H]3CCC4=CC(=O)CC[C@]4(C)[C@H]3CC[C@]12C; conditions: 0.2 mM NADPH; substrate 0.05 to 1.6 mM
[2] = substrate: C=CC(C)=O; conditions: 0.2 mM NADPH; substrate 0.05 to 1.6 mM
[3] = substrate: NC(=O)C1=CN([C@@H]2O[C@H](COP(=O)(O)OP(=O)(O)OC[C@H]3O[C@@H](n4cnc5c(N)ncnc54)[C@H](OP(=O)(O)O)[C@@H]3O)[C@@H](O)[C@H]2O)C=CC1; conditions: progesterone as the substrate; varied: cofactor

B1: rAtStR2 (A. thaliana steroid reductase 2) (Arabidopsis thaliana) (protein)
chain: MGSENGSLMRRNEVDENVALIFGVTGLVGREIVKTLLMSKPGWRIYGVARNPEINSMTKMYNFISCDLLNASETKQRLSPLQDIVSHVFWVTWSGEFPLDTDECCVQNKTMLMNALDAILPNAKRLKHFSLQTGMKHYVSLVEETMARGEGSSLYYYSEECPRKSSGKNFYYVLEDLLKEKITRSSVVWSVQRPGLLMGSSSRTLYNFMGSLCVYGAMCKYLNLPFVFGGTRECWEESYIDGSDSNLVAEQHIFAATSGKVREKGEAFNAINGVGFTWKEIWPEIGKKLGVQVNETTMFDEGFWFGREMVERKHVWDEIVVKEKLVRTEIEDLANWYFLDALFRCPFKLLGKREKVDRFGFKRKYRTLDSVLYWIDVMRDEKLIPL
notes: tag removal not mentioned
[1]
  Km: 64.7 µM
  kcat: 0.15 s⁻¹
  kcat/Km: 2310 M⁻¹ s⁻¹
[2]
  Km: 157.5 µM
  kcat: 0.03 s⁻¹
  kcat/Km: 163 M⁻¹ s⁻¹
[3]
  Km: 41.0 µM
  kcat: 0.12 s⁻¹
  kcat/Km: 2930 M⁻¹ s⁻¹
